According to patent US6600012:

Target: HLA.A2 on T2 mutant cells
Experiment: T2 cell HLA.A2 upregulation assay, flow cytometry with MA2.1

Which % Change in mean channel intensity does the source give for FLPSDYFPSV (modifications not checked) […, positive control peptide] here?
Its % Change in mean channel intensity is 428%.
